Laboratory results from paper PMC6990103 (Journal of molecular biology, 2019).

Tests used:
[1] = biological target: T1, nluc-NP612 fusion protein, BDBV (Bundibugyo ebolavirus, Uganda 2007, UniProt B8XCM7); assay: far-Western, overlay or dot blot; conditions: both partners purified
T1 construct: also called BDBV NP612 C-terminus; source: E. coli BL21(DE3)+pRARE, cytosolic, purified (IMAC, SEC)

[2] = biological target: T2, nluc-NP612 fusion protein, SUDV (Sudan ebolavirus, Boniface 1976 …, UniProt Q9QP77); assay: far-Western, overlay or dot blot; conditions: both partners purified
T2 construct: also called SUDV NP612 C-terminus; source: E. coli BL21(DE3)+pRARE, cytosolic, purified (IMAC, SEC)

[3] = biological target: T3, nluc-NP612 fusion protein, TAFV (Tai Forest ebolavirus, IC1 1994, UniProt B8XCN6); assay: far-Western, overlay or dot blot; conditions: both partners purified
T3 construct: also called TAFV C-terminus; source: E. coli BL21(DE3)+pRARE, cytosolic, purified (IMAC, SEC)

[4] = biological target: T4, recombinant SUDV Boniface 1976 NP (Sudan ebolavirus, Boniface 1976, UniProt Q9QP77); assay: far-Western, overlay or dot blot; conditions: both partners purified
T4 construct: also called SUDV NP; full-length NP polymers

[5] = biological target: T5, nluc-NP612 fusion protein, RESTV (Reston ebolavirus, Reston 1989 (isolate …, UniProt Q8JPY1)); assay: far-Western, overlay or dot blot; conditions: both partners purified
T5 construct: also called RESTV NP612 C-terminus; source: E. coli BL21(DE3)+pRARE, cytosolic, purified (IMAC, SEC)

[6] = biological target: T6, recombinant TAFV IC1 1994 NP (Tai Forest ebolavirus (TAFV)., UniProt B8XCN6); assay: far-Western, overlay or dot blot; conditions: both partners purified
T6 construct: also called TAFV NP

recombinant BDBV 2007 NP [7] = biological target: T7, recombinant BDBV 2007 NP (Bundibugyo ebolavirus (BDBV)., UniProt B8XCM7); assay: far-Western, overlay or dot blot; conditions: both partners purified
T7 construct: also called BDBV NP

[8] = biological target: T1, nluc-NP612 fusion protein, BDBV; assay: ELISA; conditions: both partners purified
[9] = biological target: T2, nluc-NP612 fusion protein, SUDV; assay: ELISA; conditions: both partners purified
[10] = biological target: T3, nluc-NP612 fusion protein, TAFV; assay: ELISA; conditions: both partners purified
[11] = biological target: T4, recombinant SUDV Boniface 1976 NP; assay: ELISA; conditions: both partners purified
[12] = biological target: T8, NP of SUDV Boniface 1976 in live virus preparation (Sudan ebolavirus, Boniface 1976, UniProt Q9QP77); assay: ELISA; conditions: one partner purified
T8 construct: also called SUDV (virus)

[13] = biological target: T9, NP of TAFV IC1 1994 in live virus preparation (Tai Forest ebolavirus (TAFV)., UniProt B8XCN6); assay: ELISA; conditions: one partner purified
T9 construct: also called TAFV (virus)

[14] = biological target: T5, nluc-NP612 fusion protein, RESTV; assay: ELISA; conditions: both partners purified
[15] = biological target: T6, recombinant TAFV IC1 1994 NP; assay: ELISA; conditions: both partners purified
recombinant BDBV 2007 NP [16] = biological target: T7, recombinant BDBV 2007 NP; assay: ELISA; conditions: both partners purified

Measured: binding result

B1: sdAb ZE alkaline phosphatase fusion (VHH)
VHH: QVQLQESGGGLVQPGGSLRLSCTASGFTLAEYGVGWFRQAPGKERELVALIAVGGTTHSIDSVKGRFTISRDNMKNTVYLQMNSLNVEDTAVYYCNAYSSAYDRNYWGQGTQVTVSS
notes: also called sdAb-AP fusion of ZE; source: previously generated [9], stored at -80 °C
binds: [1] | [2] | [3] | [4] | [5] | [6] | recombinant BDBV 2007 NP [7]

B2: sdAb ZE, biotinylated (from pecan126) (VHH)
VHH: QVQLQESGGGLVQPGGSLRLSCTASGFTLAEYGVGWFRQAPGKERELVALIAVGGTTHSIDSVKGRFTISRDNMKNTVYLQMNSLNVEDTAVYYCNAYSSAYDRNYWGQGTQVTVSS
notes: also called anti-Ebola virus sdAb; oriented sdAb captor; source: E. coli HBV88, pecan126 preparations
binds: [8] | [9] | [10] | [11] | [12] | [13] | [14] | [15] | recombinant BDBV 2007 NP [16]
